Source: the supplement of paper PMC11811203

B1: THAP1; numbered along this chain (parent)
chain: MVQSCSAYGCKNRYDKDKPVSFHKFPLTRPSLCKEWEAAVRRKNFKPTKYSSICSEHFTPDCFKRECNNKLLKENAVPTIFLCTEPHDKKEDLLEPQEQLPPPPLPPPVSQVDAAIGLLMPPLQTPVNLSVFCDHNYTVEDTMHQRKRIHQLEQQVEKLRKKLKTAQQRCRRQERQLEKLKEVVHFQKEKDDVSERGYVILPNDYFEIVEVPA

Variants of: B1
Assay: THAP1 transcriptional activity (GFP+/GFP- enrichment relative to wild-type constructs) (ratio to WT); higher = more THAP1 activity (PSMB5 reporter activation)
Conditions: with PSMB5 promoter-GFP reporter
Protocol: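 Deep mutational scan of human THAP1. Site-saturation single amino acid variant library (residues 2-213) was expressed by lentivirus at MOI ~0.3 in THAP1-knockout HEK-293T cells carrying an endogenous PSMB5 promoter-GFP knock-in reporter. Five days post-transduction, BFP+ cells were FACS-sorted into GFP dim and GFP bright populations and variants were counted by Illumina sequencing. Activity is the GFP-bright/GFP-dim read fold change, mean of 2 replicates, divided by the mean fold change of wild-type (synonymous) constructs in the same screen pool; WT = 1.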

THAP1 transcriptional activity, by site and new letter:
H87: R 1.11, F 2.09, M 2.74, W 1.17, Y 1.16, S 2.01, V 1.56, A 1.39, T 2.56, E 2.22, C 1.84, N 2.68, P 3.55, K 1.13
K89: D 1.33, S 2.9, P 0.989, G 1.41, A 0.888, Q 1.32, N 1.86, I 1.1, C 1.4, H 1.44, T 1.3, M 0.476, V 1.41, W 0.592, L 1.64, R 0.657, E 1.6, F 1.17
L94: Y 1.34, D 1.28, G 1.56, M 1.84, S 1.71, V 1.47, C 0.962, I 2.23, T 1.14, R 2.34, E 1.42, A 1.59, W 0.914, P 1.67
L93: K 0.898, N 1.51, Q 1.67, M 0.701, E 1.43, S 0.575, F 0.989, H 1.01, A 1.26, G 1.26, P 1.58, C 1.36, V 1.15, I 1.37, D 1.14, Y 1.08, W 1.12, T 1.14
K90: S 1.77, G 1.6, Q 2.35, H 0.995, C 1.03, N 1.49, P 1.06, W 0.775, M 1.03, L 0.82, I 1.52, D 0.818, A 1.95, F 0.963, E 2.91, R 0.598, Y 0.498, T 1.43
E91: G 1.01, S 1.71, V 0.513, P 0.793, Q 1.02, M 0.596, Y 0.85, L 0.546, N 0.857, D 1.04, F 0.403, I 0.999, A 0.844, K 2.46, W 0.619, T 0.885
D88: A 0.554, E 1.04, M 0.615, V 0.781, H 0.413, C 0.815, W 0.937, S 1.92, I 0.371, L 1.3, K 1.56, T 0.582, Q 1.12, F 0.918, Y 0.858, N 0.665
D92: V 0.743, I 2.59, R 1.57, E 1.44, A 1.55, C 0.866, F 0.641, M 0.739, G 0.763, T 0.984, W 0.658, K 1.22, Y 0.942, N 1.64, P 1.64
E85: R 0.558, T 0.594, Y 0.792, V 0.702, W 0.155, S 1.35
E95: I 1.13, A 1.46, L 0.979, N 1.31, H 1.29, V 0.815, R 1.65, C 1.23, S 1.02, M 0.897, Q 1.81, D 1.16, K 1.66, P 1.22, G 1.26
P86: E 2.07, I 2.01, L 0.608, M 2.06, G 0.464, K 0.623, N 0.592, W 0.533, S 0.97, T 0.609, V 1.04, A 0.874, F 0.921, R 0.766, Y 0.685, C 0.542, H 0.865
